Test results taken from patent US20250075191A1, “MODIFIED BIOLUMINESCENT ENZYMES” (Light Bio, Inc., priority 2023, published 2025).

B1: T99P: nnLuz luciferase variant with single amino acid substitution T99P (protein, UniProt A0A3G9JYH7 1-267, looked up, variant T99P)
Luciferase: MRINISLSSLFERLSKLSSRSIAITCGVVLASAIAFPIIRRDYQTFLEVGPSYAPQNFRGYIIVCVLSLFRQEQKGLAIYDRLPEKRRWLADLPFREGPRPSITSHIIQRQRTQLVDQEFATRELIDKVIPRVQARHTDKTFLSTSKFEFHAKAIFLLPSIPINDPLNIPSHDTVRRTKREIAHMHDYHDCTLHLALAAQDGKEVLKKGWGQRHPLAGPGVPGPPTEWTFLYAPRNEEEARVVEMIVEASIGYMTNDPAGKIVENAK
B2: T192S: nnLuz luciferase variant with single amino acid substitution T192S (protein, listed as Neonothopanus nambi)
chain: MRINISLSSLFERLSKLSSRSIAITCGVVLASAIAFPIIRRDYQTFLEVGPSYAPQNFRGYIIVCVLSLFRQEQKGLAIYDRLPEKRRWLADLPFREGTRPSITSHIIQRQRTQLVDQEFATRELIDKVIPRVQARHTDKTFLSTSKFEFHAKAIFLLPSIPINDPLNIPSHDTVRRTKREIAHMHDYHDCSLHLALAAQDGKEVLKKGWGQRHPLAGPGVPGPPTEWTFLYAPRNEEEARVVEMIVEASIGYMTNDPAGKIVENAK
B3: A199P: nnLuz luciferase variant with single amino acid substitution A199P (protein, listed as Neonothopanus nambi)
chain: MRINISLSSLFERLSKLSSRSIAITCGVVLASAIAFPIIRRDYQTFLEVGPSYAPQNFRGYIIVCVLSLFRQEQKGLAIYDRLPEKRRWLADLPFREGTRPSITSHIIQRQRTQLVDQEFATRELIDKVIPRVQARHTDKTFLSTSKFEFHAKAIFLLPSIPINDPLNIPSHDTVRRTKREIAHMHDYHDCTLHLALAPQDGKEVLKKGWGQRHPLAGPGVPGPPTEWTFLYAPRNEEEARVVEMIVEASIGYMTNDPAGKIVENAK
B4: D37E: nnH3H hispidin hydroxylase variant with single substitution D37E (protein, listed as Neonothopanus nambi)
chain: MASFENSLSVLIVGAGLGGLAAAIALRRQGHVVKIYESSSFKAELGAGLAVPPNTLRSLQQLGCNTENLNGVDNLCFTAMGYDGSVGMMNNMTDYREAYGTSWIMVHRVDLHNELMRVALDPGGLGPPATLHLNHRVTFCDVDACTVTFTNGTTQSADLIVGADGIRSTIRRFVLEEDVTVPASGIVGFRWLVQADALDPYPELDWIVKKPPLGARLISTPQNPQSGVGLADRRTIIIYACRGGTMVNVLAVHDDERDQNTADWSVPASKDDLFRVFHDYHPRFRRLLELAQDINLWQMRVVPVLKKWVNKRVCLLGDAAHASLPTLGQGFGMGLEDAVALGTLLPKGTTASQIETRLAVYEQLRKDRAEFVAAESYEEQYVPEMRGLYLRSKELRDRVMGYDIKVESEKVLETLLRSSNSA
B5: V181I: nnH3H hispidin hydroxylase variant with single substitution V181I (protein, listed as Neonothopanus nambi)
chain: MASFENSLSVLIVGAGLGGLAAAIALRRQGHVVKIYDSSSFKAELGAGLAVPPNTLRSLQQLGCNTENLNGVDNLCFTAMGYDGSVGMMNNMTDYREAYGTSWIMVHRVDLHNELMRVALDPGGLGPPATLHLNHRVTFCDVDACTVTFTNGTTQSADLIVGADGIRSTIRRFVLEEDVTIPASGIVGFRWLVQADALDPYPELDWIVKKPPLGARLISTPQNPQSGVGLADRRTIIIYACRGGTMVNVLAVHDDERDQNTADWSVPASKDDLFRVFHDYHPRFRRLLELAQDINLWQMRVVPVLKKWVNKRVCLLGDAAHASLPTLGQGFGMGLEDAVALGTLLPKGTTASQIETRLAVYEQLRKDRAEFVAAESYEEQYVPEMRGLYLRSKELRDRVMGYDIKVESEKVLETLLRSSNSA
B6: A183P: nnH3H hispidin hydroxylase variant with single substitution A183P (protein, listed as Neonothopanus nambi)
chain: MASFENSLSVLIVGAGLGGLAAAIALRRQGHVVKIYDSSSFKAELGAGLAVPPNTLRSLQQLGCNTENLNGVDNLCFTAMGYDGSVGMMNNMTDYREAYGTSWIMVHRVDLHNELMRVALDPGGLGPPATLHLNHRVTFCDVDACTVTFTNGTTQSADLIVGADGIRSTIRRFVLEEDVTVPPSGIVGFRWLVQADALDPYPELDWIVKKPPLGARLISTPQNPQSGVGLADRRTIIIYACRGGTMVNVLAVHDDERDQNTADWSVPASKDDLFRVFHDYHPRFRRLLELAQDINLWQMRVVPVLKKWVNKRVCLLGDAAHASLPTLGQGFGMGLEDAVALGTLLPKGTTASQIETRLAVYEQLRKDRAEFVAAESYEEQYVPEMRGLYLRSKELRDRVMGYDIKVESEKVLETLLRSSNSA
B7: S323M: nnH3H hispidin hydroxylase variant with single substitution S323M (protein, listed as Neonothopanus nambi)
chain: MASFENSLSVLIVGAGLGGLAAAIALRRQGHVVKIYDSSSFKAELGAGLAVPPNTLRSLQQLGCNTENLNGVDNLCFTAMGYDGSVGMMNNMTDYREAYGTSWIMVHRVDLHNELMRVALDPGGLGPPATLHLNHRVTFCDVDACTVTFTNGTTQSADLIVGADGIRSTIRRFVLEEDVTVPASGIVGFRWLVQADALDPYPELDWIVKKPPLGARLISTPQNPQSGVGLADRRTIIIYACRGGTMVNVLAVHDDERDQNTADWSVPASKDDLFRVFHDYHPRFRRLLELAQDINLWQMRVVPVLKKWVNKRVCLLGDAAHAMLPTLGQGFGMGLEDAVALGTLLPKGTTASQIETRLAVYEQLRKDRAEFVAAESYEEQYVPEMRGLYLRSKELRDRVMGYDIKVESEKVLETLLRSSNSA
B8: M385K: nnH3H hispidin hydroxylase variant with single substitution M385K (protein, listed as Neonothopanus nambi)
chain: MASFENSLSVLIVGAGLGGLAAAIALRRQGHVVKIYDSSSFKAELGAGLAVPPNTLRSLQQLGCNTENLNGVDNLCFTAMGYDGSVGMMNNMTDYREAYGTSWIMVHRVDLHNELMRVALDPGGLGPPATLHLNHRVTFCDVDACTVTFTNGTTQSADLIVGADGIRSTIRRFVLEEDVTVPASGIVGFRWLVQADALDPYPELDWIVKKPPLGARLISTPQNPQSGVGLADRRTIIIYACRGGTMVNVLAVHDDERDQNTADWSVPASKDDLFRVFHDYHPRFRRLLELAQDINLWQMRVVPVLKKWVNKRVCLLGDAAHASLPTLGQGFGMGLEDAVALGTLLPKGTTASQIETRLAVYEQLRKDRAEFVAAESYEEQYVPEKRGLYLRSKELRDRVMGYDIKVESEKVLETLLRSSNSA
B9: nnLuz_WT: parental luciferase derived from Neonothopanus nambi (SEQ ID NO: 1) (protein, listed as Neonothopanus nambi)
chain: MRINISLSSLFERLSKLSSRSIAITCGVVLASAIAFPIIRRDYQTFLEVGPSYAPQNFRGYIIVCVLSLFRQEQKGLAIYDRLPEKRRWLADLPFREGTRPSITSHIIQRQRTQLVDQEFATRELIDKVIPRVQARHTDKTFLSTSKFEFHAKAIFLLPSIPINDPLNIPSHDTVRRTKREIAHMHDYHDCTLHLALAAQDGKEVLKKGWGQRHPLAGPGVPGPPTEWTFLYAPRNEEEARVVEMIVEASIGYMTNDPAGKIVENAK

Experiments:
[1] = Luciferase luminescence in E. coli lysates after luciferin addition; type: biochemical; details: 100 μM luciferin, maximal brightness
Description: A library of amino acid substitutions was created applying mutagenesis to a gene encoding the luciferase derived from Neonothopanus nambi (SEQ ID NO: 8). pF4Ag shuttle vector (Promega) was used for gene expression in E. coli (T7 promoter-driven expression) and mammalian cells (CMV promoter-driven expression). The pF4Ag vector backbone introduces a C-terminal 3×-FLAG-HiBiT tag. Site-directed mutagenesis was used to substitute consensus amino acids at selected position in the luciferase sequence. Gene expression was performed in the E. coli strain KRX (Promega), which enables rhamnose-inducible expression of T7 RNA polymerase.
Colonies (in triplicate) were used to inoculate LB broth containing ampicillin ([…]) and cultures grown overnight in 96-well microtiter plates (20 hours, 37° C.). Cultures were diluted into fresh LB containing 0.1% rhamnose and ampicillin and grown for 3 hours at 37° C. 50 μl of the induced culture was lysed for 5 minutes at ambient temperature with a reagent consisting of 25 mM HEPES pH 7.5 and 0.3×PLB (E1941 Promega). 50 μl of lysate was combined with 50 μl luciferin (100 μM) in the lysis buffer and samples were measured for total luminescence using a GloMax®-Multi+luminometer. (Promega).

[2] = Enzyme thermostability in cleared E. coli lysates incubated at 22° C.; type: biochemical; details: then 100 μM luciferin
Experimental: To assess the effect on enzyme thermostability by the amino acid substitutions, lysates of transformed E. coli were prepared by sonication and cleared by centrifugation. The cleared lysates were diluted 1:100 into Tris-buffered saline with 0.01% BSA and 0.1% n-dodecyl β-D-maltoside. 100 μl of each diluted lysate were added to a 96-well PCR plate. Samples were incubated at 22° C. and at various time points aliquots were placed on ice. When all of the samples were processed, 50 μl of each was combined with 50 μl of 100 μM luciferin in Tris-buffered saline with 0.01% BSA and 0.1% n-dodecyl β-D-maltoside. Samples were immediately placed in a GloMax®-Multi+luminometer (Promega) to measure bioluminescence.

HEK293 cells = test: Hispidin hydroxylase activity in HEK293 cells co-transfected with nnLuz_v3, hispidin added, normalized to HiBiT; type: cell-based
Experimental: A library of amino acid substitutions was created applying mutagenesis to a gene encoding the hispidin hydroxylase derived from Neonothopanus nambi (SEQ ID NO: 12). This was achieved by the same method as described in Example 1. Activity was evaluated in HEK293 cells co-transfected with a gene encoding nnLuz_v3. Bioluminescence was measured as described in Example 1, except with addition of hispidin instead of luciferin.
To estimate specific activity, both luciferase activity and HiBiT were measure for each sample (see Example 2). Activity of each variant was then normalized to the expression level (i.e., luciferase bioluminescence/HiBiT signal). Substitutions at 28 positions were examined by this method.

[3] = system: yeast cells (P. pastoris); test: Stability of luciferase within yeast cells after 10 min incubation at different temperatures; type: cell-based; details: then luciferin
Experimental: To evaluate stability of nnLuz_WT and nnLuz_v4 within yeast cells, strains expressing nnLuz WT or nnLux_v4 were grown on plates for 24 hours, then resuspended in PBS to final OD (600 nm)=5 and 50 μl was placed in wells of a 96-well PCR plate. Different portions of the plate were incubated at different temperatures for 10 minutes using a gradient thermal cycler. The plate were then placed on ice for 5 minutes and 10 μl of 500 μM luciferin (2% DMSO, 10 mM thioglycolic acid, 0.1% DDM in DPBS) were added to each well. Then 25 μl of suspension from each well was transferred to a black 96-well plate containing 0.2 M sodium phosphate buffer with 0.5 M Na2SO4,pH=8.

Row | Molecule | production of bioluminescence relative to parental nnLuz [1] | enzyme stability relative to unmodified parental luciferase [2] | bioluminescence over parental enzyme nnH3H_WT, normalized to expression level (HiBiT) (HEK293 cells) | further results
1 | B1 | significant improvements | more stable |  | 
2 | B2 | significant improvements | more stable |  | 
3 | B3 | significant improvements | more stable |  | 
4 | B4 |  |  | significantly increased bioluminescence | 
5 | B5 |  |  | significantly increased bioluminescence | 
6 | B6 |  |  | significantly increased bioluminescence | 
7 | B7 |  |  | significantly increased bioluminescence | 
8 | B8 |  |  | significantly increased bioluminescence | 
9 | B9 |  |  |  | reduction of luminescence after incubation at 40° C. ([3]; 10 min at 40° C.): > 3 fold; reduction of luminescence after incubation at 45° C. ([3]; 10 min at 45° C.): 100 fold
